In patent US10792332B2, “Anti-infective properties of antifreeze protein” (priority 2013, dated 2020):
“And” between values parts separate entries of the source, which are not always exact repeats. Equal entries are not always repeated. “Also recorded” adds a separate entry of the source. Ends that are not written are not given here.

Legend:
S. aureus [1] = assay: Static biofilm assay (safranin stain); assay type: cell-based, Staphylococcus aureus; conditions: preliminary data
Description: Biofilm assays were performed as described^38. Briefly, planktonic overnight cultures of S. aureus were diluted in glucose-supplemented tryptic soy broth or brain-heart-infusion broth (1% glucose; TSB/G or BHI/G) to OD600=0.015 and distributed into 96 well plates (Corning, NC). After an 18 h incubation at 37° C. bacterial growth in each well was confirmed by the measurement of OD600 using a spectrophotometer (BioTek, VT). The supernatant was discarded and the wells were washed with water twice. Bacteria associated with the well surface were dried and stained with safranin. The dye was then dissolved in 33% acetid acid and quantified at OD415 nm using a spectrophotometer (BioTek, VT). Bacterial attachment to catheter materials pre-incubated with peptides was investigated. Vialon™ catheters (BD Biosciences, NJ) were incubated for 18 h in 0.1 mg/ml peptides dissolved in PBS, washed with PBS and incubated in bacterial suspensions for 24 h. Following removal of non-adherent bacteria with repeated washing, adherent bacteria and biofilms were dissociated using sonication in PBS. Bacterial titers were quantified by plating serial dilutions on agar plates and were calculated per as CFU per catheter.

[2] = Murine subcutaneous catheter implant model; assay type: in vivo, C57Bl/6 mice; conditions: under the conditions used
Description: FIG. 5A depicts bacterial attachment to intravenous catheters that had been incubated in PBS, GST, GST-IAFGP, P2 and P21c before transferring into S. aureus SA113 suspensions. Bacterial attachment was quantified after sonication by plating serial dilutions. Data were pooled from 3 independent experiments (One-Way-ANOVA; *: p<0.05). FIG. 5B presents bacterial attachment to intravenous catheters that had been incubated in PBS, P1 or sP1 and implanted subcutaneously on the dorsal flanks of C57Bl/6 mice. 72 hrs after catheter inoculation with 5×10^5 CFU S. aureus SA113 the catheters were removed and the attached bacteria were quantified by plating serial dilutions. […]
Seven days after catheter inoculation with S. aureus SA113, the catheters were removed, and the attached bacteria were quantified by plating serial dilutions.
(§1) Cecal ligation and puncture surgery was performed as described^26,41 Mice were anesthesized using isoflurane inhalation and the cecum was exteriorized through a peritoneal midline incision. […] Body surface temperature was measured dorsally using an infrared thermometer. A retro-orbital blood sample was taken daily and the cytokine levels of TNF-α, IL-6, IL12b and MCP-1 were measured using enzyme-linked immunosorbent assay (ELISA) kits (eBiosciences, San Diego, Calif.). […] The number of attached bacteria was determined by plating serial dilutions on agar plates.

S. aureus [3] = assay: Bacterial growth in vitro (OD600); assay type: cell-based, Staphylococcus aureus; conditions: 0.1 mg/ml in BHI/G, 37° C., SA113 or USA300 JE2
Description: A stationary culture of S. aureus was diluted to OD600=0.01 in BHI medium and supplemented with 0.2 mg/ml recombinant IAFGP-GST, BSA or PBS as control. Bacterial growth was measured over time at OD600 using a spectrophotometer. Growth curves from 5 independent experiments were pooled±SEM.
A stationary culture of S. aureus SA113 or USA300 JE2 was diluted in BHI/G to OD600=0.01 supplemented with 0.1 mg/ml IAFGP-GST, GST, P1, sP1 or media alone. Following static incubation at 37° C. for 24 h bacterial density was measured at OD600 using a spectrophotometer.

Listeria monocytogenes = assay: Needle prick infection of iafgp-expressing fruit flies; assay type: in vivo, D. melanogaster
Description: (§2) A 0.6 μm tungsten needle was dipped into a 1:10 diluted stationary culture of L. monocytogenes and flies were pricked in the right lateral side of the thorax. Fly survival was monitored visually over the course of infection. Uninfected controls (n.i.; n=40) were pricked with a needle dipped into PBS. Data were pooled from 2 independent experiments (Log-rank test; p<0.005). […] Groups of 20-25 flies were transferred into vials containing only a piece of absorbing tissue. Stationary bacterial cultures, resuspended in 4% sucrose and diluted 2-fold were used to soak the paper, controls received only sucrose solution. Every 3 days the flies were transferred into new vials with freshly soaked tissue, and bacterial survival was measured. […] Uninfected controls (n.i.; n=40) were housed in vials with 4% sucrose. Data were pooled from 2 independent experiments (Log-rank test; p<0.001/p<0.001).

S. aureus USA300 JE2 = assay: Intranasal MRSA challenge of iafgp-transgenic mice; assay type: in vivo; conditions: iafgp-transgenic mice vs controls
Description: Iafgp-expressing mice were infected with USA300 JE2. 1.2×10^8 CFU logarithmic growth phase bacteria per mouse were applied intranasally in 50 μl PBS and murine survival was monitored.

S. aureus SA113 [4] = assay: Bacterial attachment to pre-incubated intravenous catheters in vitro; assay type: cell-based, Staphylococcus aureus
Description: FIG. 5A depicts bacterial attachment to intravenous catheters that had been incubated in PBS, GST, GST-IAFGP, P2 and P21c before transferring into S. aureus SA113 suspensions. Bacterial attachment was quantified after sonication by plating serial dilutions. Data were pooled from 3 independent experiments (One-Way-ANOVA; *: p<0.05). FIG. 5B presents bacterial attachment to intravenous catheters that had been incubated in PBS, P1 or sP1 and implanted subcutaneously on the dorsal flanks of C57Bl/6 mice. 72 hrs after catheter inoculation with 5×10^5 CFU S. aureus SA113 the catheters were removed and the attached bacteria were quantified by plating serial dilutions. CFU data were pooled from 3 independent experiments (One-Way-ANOVA with Tukey's post-test; **: p<0.01). […] S. aureus are indicated by black triangles, biofilm matrix are indicated by empty triangles.
Biofilm assays were performed as described^38. Briefly, planktonic overnight cultures of S. aureus were diluted in glucose-supplemented tryptic soy broth or brain-heart-infusion broth (1% glucose; TSB/G or BHI/G) to OD600=0.015 and distributed into 96 well plates (Corning, NC). […] The dye was then dissolved in 33% acetid acid and quantified at OD415 nm using a spectrophotometer (BioTek, VT). […] Bacterial titers were quantified by plating serial dilutions on agar plates and were calculated per as CFU per catheter.

polymicrobial sepsis = assay: Cecal ligation and puncture (polymicrobial sepsis) in iafgp-transgenic mice; assay type: in vivo
Description: Iafgp was constitutively expressed under control of the chicken β-actin promoter in an iafgp-transgenic mouse line. The promoter region was excised from pβAct-CAT 9 (ATCC, VA) using XhoI and HindIII and subcloned into the pEGFP-1 vector (Clontech, CA). EGFP was removed from pβAct-EGFP-1 by digestion with BamHI and NotI resulting in pβAct-1. Iafgp was then PCR-amplified using oligomers iafgp BamHI F and iafgp NotI R, introducing the corresponding restriction sites. The PCR fragment was digested and cloned into linearized pβAct-1, resulting in pβAct-iafgp. For microinjection, the transgene fragment containing the β-actin promoter and iafgp gene was excised from pβAct-iafgp by digestion with XhoI and AflII restriction enzymes and gel purified. Microinjection was performed in […] (C57BL/6×C3H) and mice were genotyped by PCR analysis of tail biopsies using IAFP4qRTF and IAFP4qRTR. mRNA expression of iafgp was confirmed in multiple tissues using the same primers for qRT-PCR. Transgenic iafgp-expressing mice were backcrossed for 8 generations to C57Bl/6 mice (Charles River, Mass.). Heterozygous experimental mice of 6-12 weeks were age- and sex-matched with wild-type littermates and wild-type C57Bl/6 as control. All mice were housed at 20-22° C. with water and food ad libitum. Animal handling was performed according to protocols approved by the Yale animal care and use committee.
as §1, with “incision. Seventy-five percent of the cecum was ligated and punctured through and through with a 21G hypodermic needle.” for “incision.”

S. aureus SA113 [5] = assay: S. aureus microinjection challenge of iafgp-expressing fruit flies; assay type: in vivo, D. melanogaster
Description: FIGS. 3A-3E present transgenic expression of iafgp in fruit flies and susceptibility of transgenic flies to S. aureus challenge in vivo. […] Survival data were pooled from 6 independent experiments (Log-rank test; p<0.001). […] Bacterial colonization of individual flies was determined by plating serial dilutions. Data was pooled from 3 independent experiments (One-Way-ANOVA with Tukey's post-test; ***: p<0.001; **: p<0.01; *: p<0.05). FIG. 3C presents PNAG production in iafgp-transgenic and control flies challenged with S. aureus SA113. PNAG levels of pools of 5 flies were assessed at different time points by immunoblot. Average signal intensities of 3 independent experiments±SEM with representative immunoblot images below are shown (Two-Way-ANOVA with Sidak's post test;[…]). FIG. 3D presents PNAG production in iafgp-transgenic and control flies challenged with S. aureus SA113. Paraffin sections of whole flies were stained for bacteria and PNAG. Black triangles point to bacteria, empty triangles indicate PNAG staining. […] Survival data were pooled from 4 independent experiments (Log-rank test; not significant).
Iafgp-expressing and mCherry-expressing flies were generated as described^13. D. melanogaster flies were maintained using standard procedures^39. The fly colony was sustained at 21-23° C. Following infection, flies were incubated at 29° C. to increase UAS-mediated transgene expression. Five to 9 day old females were used for experiments. Twenty to 30 flies per vial were infected by microinjection as reviewed in^40 and survival was monitored. Microinjection was performed into the thorax below the wing using a Nanojet microinjector (Drummond Scientific, PA). Bacteria in stationary growth phase were diluted in PBS to OD600=0.01 or OD600=0.1 and 9.2 nl were injected, corresponding to an infectious dose of 50-100 to 500-1000 CFU per fly respectively. For CFU analysis individual flies were homogenized in […] using a bullet blender (Nextadvance, NY) and steel beads. Serial dilutions were plated on brain-heart-infusion agar plates and incubated at 37° C. overnight. Endogenous fly bacteria only grew to pinprick-size overnight, allowing visual distinction of the fast-growing bacteria used for infection (data not shown). mRNA was isolated from individual flies homogenized in […] using RNAeasy kit (Qiagen, Hilden, Germany). Following DNAse digestion with Turbo DNA-free Kit (Ambion/Life Technologies, NY) RNA was reverse-transcribed with iScript cDNA synthesis kit (BioRad, CA) and gene expression was quantified by qRT-PCR using iQ SYBR Green Supermix (BioRad, CA).

Pseudomonas entomophila = assay: Oral infection of iafgp-expressing fruit flies; assay type: in vivo, D. melanogaster
Description: as §2

Serratia marcescens = assay: Oral infection of iafgp-expressing fruit flies; assay type: in vivo, D. melanogaster
Description: as §2

[6] = iafgp-expressing flies vs controls

In the case of “PARKARAATPATPATAATPATAAT (listed as Ixodes scapularis) [P0]”, the anti-biofilm activity (S. aureus [1]) is reported as “anti-biofilm activity has been identified”.

For PARKARAATAATAATAATAATAAT [P1], the toxicity in vivo [2] was “no signs of toxicity”.

With “AAAAATATAAARRAAAAPTTAKTT [sP1, P2 randomized, soluble, negative control]” the “bacterial density/viability at OD600 after 24 h static incubation” value (S. aureus [3]) was “Neither proteins nor peptides affected bacterial growth”.

B1: IAFGP: Ixodes scapularis anti-freeze glycoprotein, 251 amino acids, SEQ ID NO: 3; also expressed transgenically in flies and mice (protein, listed as Ixodes scapularis)
chain: MTTLLRLTILIVAVAGVLGSSKRAARAATPATAATPATPATAATPAIAATPATAATPATAATPARKARAATPATPATPATAATPATAATPARKARAATAATPATPATAATPARKARAATPATPATAATPATAATPARKARAATPATPATAATPATAATPARKARAATPATPATAATPATAATPARKARAATPATPATAATAATPARKARAATAATPATPATAATPARKARAATPATAATAATPATAATAAA
For B1, the “fly survival after L. monocytogenes infection” value (Listeria monocytogenes) was “increased fly survival”, the “survival after intranasal MRSA challenge” value (S. aureus USA300 JE2) was “increased survival; also recorded: enhanced survival” and the “bacterial attachment / biofilm formation on intravenous catheters in vitro” value (S. aureus SA113 [4]) was “altered bacterial attachment; also recorded: reduced biofilm formation”. For the same molecule, the “lowering of catheter-associated bacteria in comparison to untreated controls” value (S. aureus SA113 [4]; catheters incubated in protein or peptide solution, then S. aureus suspension) was 9 fold, the “general health and activity (disease score)” value (polymicrobial sepsis; 24-36 h after surgery, transgenic vs control mice) was “significantly better general health and activity” and the “extended (average) survival compared to controls after CLP” value (polymicrobial sepsis; iafgp-expressing mice) was 40% and 35%. The “hypothermia and serum cytokine release of MCP-1, TNF-α, IL6 and IL12p40” value (polymicrobial sepsis; iafgp-expressing mice vs controls) was “delayed”, the “pathogen titers in flies over the course of infection” value (S. aureus SA113 [5]; iafgp-expressing flies) was “remained stable over the course of infection” and the “PNAG quantity during S. aureus infection of flies” value (S. aureus SA113 [5]; [6]) was “reduced”. For the same molecule, the “fly survival after S. aureus microinjection” value (S. aureus SA113 [5]; [6]) was “enhanced survival”, the “effect of IAFGP on flies challenged with PNAG-deficient S. aureus ΔicaADBC mutant” value (S. aureus SA113 [5]; ΔicaADBC mutant) was “completely abrogated” and the “fly survival after P. entomophila infection” value (Pseudomonas entomophila) was “increased fly survival”. For the same molecule, the “fly survival after S. marcescens infection” value (Serratia marcescens) was “increased fly survival”.
